The chains are these.
B1: GFP-Sgo1 (472-530) [S. cerevisiae] / Ycg1 (6–932, Δ499–555)-Brn1 (384–529) [S. cerevisiae] (parent complex)
chain 1: KNEKKLTSNNSPKKSSPLLDITNKSENKKKSTRTKKLFKNAIVNNLSDENSTTRPSKSS
chain 2: GIDINTKIFNSVAEVFQKAQGSYAGHRKHIAVLKKIQSKAVEQGYEDAFNFWFDKLVTKILPLKKNEIIGDRIVKLVAAFIASLERELILAKKQNYKLTNDEEGIFSRFVDQFIRHVLRGVESPDKNVRFRVLQLLAVIMDNIGEIDESLFNLLILSLNKRIYDREPTVRIQAVFCLTKFQDEEQTEHLTELSDNEENFEATRTLVASIQNDPSAEVRRAAMLNLINDNNTRPYILERARDVNIVNRRLVYSRILKSMGRKCFDDIEPHIFDQLIEWGLEDRELSVRNACKRLIAHDWLNALDGDLIELLEKLDVSRSSVCVKAIEALFQSRPDILSKIKFPESIWKDFTVEIAFLFRAIYLYCLDNNITEMLEENFPEASKLSEHLNHYILLRYHHNDISNDSQSHFDYNTLEFIIEQLSIAAERYDYSDEVGRRSMLTVVRNMLALTTLSEPLIKIGIRVMKSLSINEKDFVTMAIEIINDIRDDDIEKQESESDIINNLPPEKEASSATIVLCLTRSSYMLELVNTPLTENILIASLMDTLITPAVRNTAPNIRELGVKNLGLCCLLDVKLAIDNMYILGMCVSKGNASLKYIALQVIVDIFSVHGNTVVDGEGKVDSISLHKIFYKVLKNNGLPECQVIAAEGLCKLFLADVFTDDDLFETLVLSYFSPINSSNEALVQAFAFCIPVYCFSHPAHQQRMSRTAADILLRLCVLWDDLQSSVIPEVDREAMLKPNIIFQQLLFWTDPRNLVNQTGSTKKDTVQLTFLIDVLKIYAQIEKKEIKKMIITNINAIFLSSEQDYSTLKELLEYSDDIAENDNLDNVSKNALDKLRNNLNSLIEEINERSETQTKDENNTANDQYSSILGN
chain 3: SIFEKDLMAYFDENLNRNWRGREHWKVRNFKKANLVNKESDLLEETRTTIGDTTDKNTTDDKSMDTKKKHKQKKVLEIDFFKTDDSFEDKVFASKGRTKIDMPIKNRKNDTHYLLPDDFHFSTDRITRLFIKPGQKMSLFSHRKHT

In this assay the parent is B1. Briefly: co-immunoprecipitation (anti-GFP-coupled beads), silver-stained SDS-PAGE band quantification; 25 mM HEPES pH 7.5, 500 mM NaCl, 10% glycerol, 1 mM DTT, 0.1% NP-40; 2.5 h incubation; parent: 1; read off a plot.
With chain 1 KNEKKLTSNNSPKKSSPLLDITNKSENKKKSTRTKKEEKNAEENNLSDENSTTRPSKSS, the ratio to parent is approximately 0.54. In the case of chain 1 KNEKKLTSNNSPKKSSPLLDITNKSENKKKSTRTKKEEKNAIVNNLSDENSTTRPSKSS, the ratio to parent is approximately 0.37. chain 1 KNEKKLTSNNSPKKSSPLLDITNKSENKKKSTRTKKEEKNAEENNESDENSTTRPSKSS: the ratio to parent is approximately 0.84.

Consider chain 1 KNEKKLTSNNSPKKSSPLLDITNKSENKKKSTRTKKLFKNAIVNNESDENSTTRPSKSS, for which the ratio to parent was approximately 0.66.

With chain 1 KNEKKLTSNNSPKKSSPLLDITNKSENKKKSTRTKKLFKNAEENNLSDENSTTRPSKSS, the ratio to parent is approximately 0.51.

Source of the values: publication PMC11791182, “Molecular mechanism targeting condensin for chromosome condensation” (The EMBO Journal, 2024).
